Laboratory results published in the supplement of paper PMC10266784.

B1: library; numbered along this chain (parent)
chain: MAAAAAAAAEQQSSNGPVKKSMREKAVERRSVNKEHNSNFKAGYIPIDEDRLHKTGLRGRKGNLAICVIILLFILAVINLIITLVIWAVIRIGPNGCDSMEFHESGLLRFKQVSDMGVIHPLYKSTVGGRRNENLVITGNNQPIVFQQGTTKLSVENNKTSITSDIGMQFFDPRTQNILFSTDYETHEFHLPSGVKSLNVQKASTERITSNATSDLNIKVDGRAIVRGNEGVFIMGKTIEFHMGGNMELKAENSIILNGSVMVSTTRLPSSSSGDQLGSGDWVRYKLCMCADGTLFKVQVTSQNMGCQISDNPCGNTH

Variants of: B1
Assay: SGCB cell-surface expression functional score (HA stain, bin4 vs bin1, normalised to synonymous) (log10 ratio); higher = more cell-surface SGCB (functional)
Summary of the method: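 HEK293 cells stably expressing alpha-, gamma- and delta-sarcoglycan received codon-saturation libraries of HA-tagged, YFP-fused human beta-sarcoglycan by lentiviral transduction at MOI <0.1, performed in duplicate. Cells positive for YFP were sorted after 72 hours and cultured for 5–7 days, then stained on ice with Alexa Fluor 647 anti-HA and fixed. Fixed cells were sorted into four 5% intensity bins and amplicon-sequenced, and the log ratio of highest-bin to lowest-bin variant frequency, as a median over codons and transductions, gives the functional score. Per section, synonymous variants were scaled to mean 0, SD 0.5.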

Compared with MAAAAAAAAEQQSSNGPVKKSMREKAVERRSVNKEHNSNFKAGYIPIDEDRLHKTGLRGRKGNLAICVIILLFILAVINLIITLVIWAVIRIGPNGCDSMEFHESGLLRFKQVSDMGVIHPLYKSTVGVRRNENLVITGNNQPIVFQQGTTKLSVENNKTSITSDIGMQFFDPRTQNILFSTDYETHEFHLPSGVKSLNVQKASTERITSNATSDLNIKVDGRAIVRGNEGVFIMGKTIEFHMGGNMELKAENSIILNGSVMVSTTRLPSSSSGDQLGSGDWVRYKLCMCADGTLFKVQVTSQNMGCQISDNPCGNTH [G129V], MAAAAAAAAEQQSSNGPVKKSMREKAVERRSVNKEHNSNFKAGYIPIDEDRLHKTGLRGRKGNLAICVIILLFILAVINLIITLVIWAVIRIGPNGCDSMEFHESGLLRFKQVSDMGVIHPLYKSTVGWRRNENLVITGNNQPIVFQQGTTKLSVENNKTSITSDIGMQFFDPRTQNILFSTDYETHEFHLPSGVKSLNVQKASTERITSNATSDLNIKVDGRAIVRGNEGVFIMGKTIEFHMGGNMELKAENSIILNGSVMVSTTRLPSSSSGDQLGSGDWVRYKLCMCADGTLFKVQVTSQNMGCQISDNPCGNTH [G129W] is lower in “SGCB cell-surface expression functional score (log10)” value: -0.74 for the first, -1.42 for the second.

First: MAAAAAAAAEQQSSNGPVKKSMREKAVERRSVNKEHNSNFKAGYIPIDEDRLHKTGLRGRKGNLAICVIILLFILAVINLIITLVIWAVIRIGPNGCDSMEFHESGLLRFKQVSDMGVIHPLYKSTVGYRRNENLVITGNNQPIVFQQGTTKLSVENNKTSITSDIGMQFFDPRTQNILFSTDYETHEFHLPSGVKSLNVQKASTERITSNATSDLNIKVDGRAIVRGNEGVFIMGKTIEFHMGGNMELKAENSIILNGSVMVSTTRLPSSSSGDQLGSGDWVRYKLCMCADGTLFKVQVTSQNMGCQISDNPCGNTH [G129Y]
Second: MAAAAAAAAEQQSSNGPVKKSMREKAVERRSVNKEHNSNFKAGYIPIDEDRLHKTGLRGRKGNLAICVIILLFILAVINLIITLVIWAVIRIGPNGCDSMEFHESGLLRFKQVSDMGVIHPLYKSTVGGTRNENLVITGNNQPIVFQQGTTKLSVENNKTSITSDIGMQFFDPRTQNILFSTDYETHEFHLPSGVKSLNVQKASTERITSNATSDLNIKVDGRAIVRGNEGVFIMGKTIEFHMGGNMELKAENSIILNGSVMVSTTRLPSSSSGDQLGSGDWVRYKLCMCADGTLFKVQVTSQNMGCQISDNPCGNTH [R130T]
The “SGCB cell-surface expression functional score (log10)” value of the first is lower: -0.91 for the first, -0.51 for the second.

Going from MAAAAAAAAEQQSSNGPVKKSMREKAVERRSVNKEHNSNFKAGYIPIDEDRLHKTGLRGRKGNLAICVIILLFILAVINLIITLVIWAVIRIGPNGCDSMEFHESGLLRFKQVSDMGVIHPLYKSTVGGPRNENLVITGNNQPIVFQQGTTKLSVENNKTSITSDIGMQFFDPRTQNILFSTDYETHEFHLPSGVKSLNVQKASTERITSNATSDLNIKVDGRAIVRGNEGVFIMGKTIEFHMGGNMELKAENSIILNGSVMVSTTRLPSSSSGDQLGSGDWVRYKLCMCADGTLFKVQVTSQNMGCQISDNPCGNTH [R130P] to MAAAAAAAAEQQSSNGPVKKSMREKAVERRSVNKEHNSNFKAGYIPIDEDRLHKTGLRGRKGNLAICVIILLFILAVINLIITLVIWAVIRIGPNGCDSMEFHESGLLRFKQVSDMGVIHPLYKSTVGGCRNENLVITGNNQPIVFQQGTTKLSVENNKTSITSDIGMQFFDPRTQNILFSTDYETHEFHLPSGVKSLNVQKASTERITSNATSDLNIKVDGRAIVRGNEGVFIMGKTIEFHMGGNMELKAENSIILNGSVMVSTTRLPSSSSGDQLGSGDWVRYKLCMCADGTLFKVQVTSQNMGCQISDNPCGNTH [R130C], the “SGCB cell-surface expression functional score (log10)” value falls from 0.33 to -0.28.

First: MAAAAAAAAEQQSSNGPVKKSMREKAVERRSVNKEHNSNFKAGYIPIDEDRLHKTGLRGRKGNLAICVIILLFILAVINLIITLVIWAVIRIGPNGCDSMEFHESGLLRFKQVSDMGVIHPLYKSTVGGGRNENLVITGNNQPIVFQQGTTKLSVENNKTSITSDIGMQFFDPRTQNILFSTDYETHEFHLPSGVKSLNVQKASTERITSNATSDLNIKVDGRAIVRGNEGVFIMGKTIEFHMGGNMELKAENSIILNGSVMVSTTRLPSSSSGDQLGSGDWVRYKLCMCADGTLFKVQVTSQNMGCQISDNPCGNTH [R130G]
Second: MAAAAAAAAEQQSSNGPVKKSMREKAVERRSVNKEHNSNFKAGYIPIDEDRLHKTGLRGRKGNLAICVIILLFILAVINLIITLVIWAVIRIGPNGCDSMEFHESGLLRFKQVSDMGVIHPLYKSTVGGQRNENLVITGNNQPIVFQQGTTKLSVENNKTSITSDIGMQFFDPRTQNILFSTDYETHEFHLPSGVKSLNVQKASTERITSNATSDLNIKVDGRAIVRGNEGVFIMGKTIEFHMGGNMELKAENSIILNGSVMVSTTRLPSSSSGDQLGSGDWVRYKLCMCADGTLFKVQVTSQNMGCQISDNPCGNTH [R130Q]
The “SGCB cell-surface expression functional score (log10)” value of the first is lower: -0.2 for the first, 0.47 for the second.

Going from MAAAAAAAAEQQSSNGPVKKSMREKAVERRSVNKEHNSNFKAGYIPIDEDRLHKTGLRGRKGNLAICVIILLFILAVINLIITLVIWAVIRIGPNGCDSMEFHESGLLRFKQVSDMGVIHPLYKSTVGGLRNENLVITGNNQPIVFQQGTTKLSVENNKTSITSDIGMQFFDPRTQNILFSTDYETHEFHLPSGVKSLNVQKASTERITSNATSDLNIKVDGRAIVRGNEGVFIMGKTIEFHMGGNMELKAENSIILNGSVMVSTTRLPSSSSGDQLGSGDWVRYKLCMCADGTLFKVQVTSQNMGCQISDNPCGNTH [R130L] to MAAAAAAAAEQQSSNGPVKKSMREKAVERRSVNKEHNSNFKAGYIPIDEDRLHKTGLRGRKGNLAICVIILLFILAVINLIITLVIWAVIRIGPNGCDSMEFHESGLLRFKQVSDMGVIHPLYKSTVGGKRNENLVITGNNQPIVFQQGTTKLSVENNKTSITSDIGMQFFDPRTQNILFSTDYETHEFHLPSGVKSLNVQKASTERITSNATSDLNIKVDGRAIVRGNEGVFIMGKTIEFHMGGNMELKAENSIILNGSVMVSTTRLPSSSSGDQLGSGDWVRYKLCMCADGTLFKVQVTSQNMGCQISDNPCGNTH [R130K], the “SGCB cell-surface expression functional score (log10)” value falls from 0.65 to -0.01.

Compared with MAAAAAAAAEQQSSNGPVKKSMREKAVERRSVNKEHNSNFKAGYIPIDEDRLHKTGLRGRKGNLAICVIILLFILAVINLIITLVIWAVIRIGPNGCDSMEFHESGLLRFKQVSDMGVIHPLYKSTVGGDRNENLVITGNNQPIVFQQGTTKLSVENNKTSITSDIGMQFFDPRTQNILFSTDYETHEFHLPSGVKSLNVQKASTERITSNATSDLNIKVDGRAIVRGNEGVFIMGKTIEFHMGGNMELKAENSIILNGSVMVSTTRLPSSSSGDQLGSGDWVRYKLCMCADGTLFKVQVTSQNMGCQISDNPCGNTH [R130D], MAAAAAAAAEQQSSNGPVKKSMREKAVERRSVNKEHNSNFKAGYIPIDEDRLHKTGLRGRKGNLAICVIILLFILAVINLIITLVIWAVIRIGPNGCDSMEFHESGLLRFKQVSDMGVIHPLYKSTVGGNRNENLVITGNNQPIVFQQGTTKLSVENNKTSITSDIGMQFFDPRTQNILFSTDYETHEFHLPSGVKSLNVQKASTERITSNATSDLNIKVDGRAIVRGNEGVFIMGKTIEFHMGGNMELKAENSIILNGSVMVSTTRLPSSSSGDQLGSGDWVRYKLCMCADGTLFKVQVTSQNMGCQISDNPCGNTH [R130N] is higher in “SGCB cell-surface expression functional score (log10)” value: -1.07 for the first, -0.47 for the second.

Compared with MAAAAAAAAEQQSSNGPVKKSMREKAVERRSVNKEHNSNFKAGYIPIDEDRLHKTGLRGRKGNLAICVIILLFILAVINLIITLVIWAVIRIGPNGCDSMEFHESGLLRFKQVSDMGVIHPLYKSTVGGMRNENLVITGNNQPIVFQQGTTKLSVENNKTSITSDIGMQFFDPRTQNILFSTDYETHEFHLPSGVKSLNVQKASTERITSNATSDLNIKVDGRAIVRGNEGVFIMGKTIEFHMGGNMELKAENSIILNGSVMVSTTRLPSSSSGDQLGSGDWVRYKLCMCADGTLFKVQVTSQNMGCQISDNPCGNTH [R130M], MAAAAAAAAEQQSSNGPVKKSMREKAVERRSVNKEHNSNFKAGYIPIDEDRLHKTGLRGRKGNLAICVIILLFILAVINLIITLVIWAVIRIGPNGCDSMEFHESGLLRFKQVSDMGVIHPLYKSTVGGHRNENLVITGNNQPIVFQQGTTKLSVENNKTSITSDIGMQFFDPRTQNILFSTDYETHEFHLPSGVKSLNVQKASTERITSNATSDLNIKVDGRAIVRGNEGVFIMGKTIEFHMGGNMELKAENSIILNGSVMVSTTRLPSSSSGDQLGSGDWVRYKLCMCADGTLFKVQVTSQNMGCQISDNPCGNTH [R130H] is lower in “SGCB cell-surface expression functional score (log10)” value: 0.56 for the first, 0.08 for the second.

MAAAAAAAAEQQSSNGPVKKSMREKAVERRSVNKEHNSNFKAGYIPIDEDRLHKTGLRGRKGNLAICVIILLFILAVINLIITLVIWAVIRIGPNGCDSMEFHESGLLRFKQVSDMGVIHPLYKSTVGGIRNENLVITGNNQPIVFQQGTTKLSVENNKTSITSDIGMQFFDPRTQNILFSTDYETHEFHLPSGVKSLNVQKASTERITSNATSDLNIKVDGRAIVRGNEGVFIMGKTIEFHMGGNMELKAENSIILNGSVMVSTTRLPSSSSGDQLGSGDWVRYKLCMCADGTLFKVQVTSQNMGCQISDNPCGNTH [R130I] and MAAAAAAAAEQQSSNGPVKKSMREKAVERRSVNKEHNSNFKAGYIPIDEDRLHKTGLRGRKGNLAICVIILLFILAVINLIITLVIWAVIRIGPNGCDSMEFHESGLLRFKQVSDMGVIHPLYKSTVGGFRNENLVITGNNQPIVFQQGTTKLSVENNKTSITSDIGMQFFDPRTQNILFSTDYETHEFHLPSGVKSLNVQKASTERITSNATSDLNIKVDGRAIVRGNEGVFIMGKTIEFHMGGNMELKAENSIILNGSVMVSTTRLPSSSSGDQLGSGDWVRYKLCMCADGTLFKVQVTSQNMGCQISDNPCGNTH [R130F] are within 0.2 log units of each other in “SGCB cell-surface expression functional score (log10)” value: 0.29 for the first, 0.13 for the second.

MAAAAAAAAEQQSSNGPVKKSMREKAVERRSVNKEHNSNFKAGYIPIDEDRLHKTGLRGRKGNLAICVIILLFILAVINLIITLVIWAVIRIGPNGCDSMEFHESGLLRFKQVSDMGVIHPLYKSTVGGARNENLVITGNNQPIVFQQGTTKLSVENNKTSITSDIGMQFFDPRTQNILFSTDYETHEFHLPSGVKSLNVQKASTERITSNATSDLNIKVDGRAIVRGNEGVFIMGKTIEFHMGGNMELKAENSIILNGSVMVSTTRLPSSSSGDQLGSGDWVRYKLCMCADGTLFKVQVTSQNMGCQISDNPCGNTH [R130A] and MAAAAAAAAEQQSSNGPVKKSMREKAVERRSVNKEHNSNFKAGYIPIDEDRLHKTGLRGRKGNLAICVIILLFILAVINLIITLVIWAVIRIGPNGCDSMEFHESGLLRFKQVSDMGVIHPLYKSTVGGERNENLVITGNNQPIVFQQGTTKLSVENNKTSITSDIGMQFFDPRTQNILFSTDYETHEFHLPSGVKSLNVQKASTERITSNATSDLNIKVDGRAIVRGNEGVFIMGKTIEFHMGGNMELKAENSIILNGSVMVSTTRLPSSSSGDQLGSGDWVRYKLCMCADGTLFKVQVTSQNMGCQISDNPCGNTH [R130E] are within 0.2 log units of each other in “SGCB cell-surface expression functional score (log10)” value: 0.27 for the first, 0.14 for the second.

With MAAAAAAAAEQQSSNGPVKKSMREKAVERRSVNKEHNSNFKAGYIPIDEDRLHKTGLRGRKGNLAICVIILLFILAVINLIITLVIWAVIRIGPNGCDSMEFHESGLLRFKQVSDMGVIHPLYKSTVGGSRNENLVITGNNQPIVFQQGTTKLSVENNKTSITSDIGMQFFDPRTQNILFSTDYETHEFHLPSGVKSLNVQKASTERITSNATSDLNIKVDGRAIVRGNEGVFIMGKTIEFHMGGNMELKAENSIILNGSVMVSTTRLPSSSSGDQLGSGDWVRYKLCMCADGTLFKVQVTSQNMGCQISDNPCGNTH [R130S] the “SGCB cell-surface expression functional score (log10)” value was -0.4.
